Test results: IntAct's records for PubMed 17304241

B1: Protein zyg-11 homolog B (Homo sapiens), Q9C0D3 (parent)
chain: MPEDQAGAAMEEASPYSLLDICLNFLTTHLEKFCSARQDGTLCLQEPGVFPQEVADRLLRTMAFHGLLNDGTVGIFRGNQMRLKRACIRKAKISAVAFRKAFCHHKLVELDATGVNADITITDIISGLGSNKWIQQNLQCLVLNSLTLSLEDPYERCFSRLSGLRALSITNVLFYNEDLAEVASLPRLESLDISNTSITDITALLACKDRLKSLTMHHLKCLKMTTTQILDVVRELKHLNHLDISDDKQFTSDIALRLLEQKDILPNLVSLDVSGRKHVTDKAVEAFIQQRPSMQFVGLLATDAGYSEFLTGEGHLKVSGEANETQIAEALKRYSERAFFVREALFHLFSLTHVMEKTKPEILKLVVTGMRNHPMNLPVQLAASACVFNLTKQDLAAGMPVRLLADVTHLLLKAMEHFPNHQQLQKNCLLSLCSDRILQDVPFNRFEAAKLVMQWLCNHEDQNMQRMAVAIISILAAKLSTEQTAQLGTELFIVRQLLQIVKQKTNQNSVDTTLKFTLSALWNLTDESPTTCRHFIENQGLELFMRVLESFPTESSIQQKVLGLLNNIAEVQELHSELMWKDFIDHISSLLHSVEVEVSYFAAGIIAHLISRGEQAWTLSRSQRNSLLDDLHSAILKWPTPECEMVAYRSFNPFFPLLGCFTTPGVQLWAVWAMQHVCSKNPSRYCSMLIEEGGLQHLYNIKDHEHTDPHVQQIAVAILDSLEKHIVRHGRPPPCKKQPQARLN

Variants of: B1
Settings: with eloc_human ELOC

Variant	effect of a mutation on the interaction
L18S	disrupting interaction
C22S	disrupting interaction
